Kd data for 35 sequences are collected here from the Immune Epitope Database (IEDB).

Targets include HLA-A*02:02; HLA-A*02:03; HLA-A*02:06.
Holding throughout (experiment): IEDB peptide-MHC binding, purified MHC/competitive/radioactivity; filed as Kd, often an IC50 or EC50 that approximates it; ≥ and ≤ were set here for values at or beyond the usual limits of such assays
The next assay deals with HLA-A*03:01. The following applies: source organism: Vaccinia virus WR.
A further assay deals with HLA-A*11:01. The following applies: source organism: Vaccinia virus WR.
A further assay has as its target HLA-A*31:01. Particulars: source organism: Vaccinia virus WR.
The target in a further assay is HLA-A*33:01. Particulars: source organism: Vaccinia virus WR.
Another assay concerns the target HLA-A*68:01. Particulars: source organism: Vaccinia virus WR.
Setting [1] is: source organism: Vaccinia virus WR.
Where [2] appears, read: source organism: Mammarenavirus machupoense.
Where [3] appears, read: source organism: SARS coronavirus Tor2.
Setting [4] is: source organism: Lymphocytic choriomeningitis virus (strain Armstrong).

For the sequence DINVIGLIVI, the Kd stood at 7150 nM with HLA-A*02:02 (setting [1]), 2810 nM with HLA-A*02:03 (setting [1]) and 2790 nM in the assay with HLA-A*02:06 (setting [1]).
Take GLSQFTHTV: the Kd in the assay with HLA-A*02:02 (setting [2]) amounted to 5.28 nM; in the assay with HLA-A*02:03 (setting [2]), 7.65 nM; in the assay with HLA-A*02:06 (setting [2]) it was 332 nM.
Turning to KQYDSTDFKM, the values for the Kd in the assay with HLA-A*02:02 (setting [1]), with HLA-A*02:03 (setting [1]) and with HLA-A*02:06 (setting [1]) were 8.38 nM, 3270 nM and 107 nM, respectively.
On the same counts, the results for VTKSSSWKDV are at least 70000 nM, at least 41900 nM and at least 69800 nM.
In the case of SMSQELAEL, the Kd in the assay with HLA-A*02:02 (setting [1]) stood at 3.98 nM; with HLA-A*02:03 (setting [1]) it was 7.66 nM; with HLA-A*02:06 (setting [1]), 186 nM.
On to IIYSKAGNI, for which the Kd came out at 9760 nM with HLA-A*02:02 (setting [1]), 12.6 nM with HLA-A*02:03 (setting [1]) and 13700 nM with HLA-A*02:06 (setting [1]).
Turning to RVLYDEFVT, the Kd in the assay with HLA-A*02:02 (setting [1]) turned out to be 2170 nM; with HLA-A*02:03 (setting [1]), 1410 nM; with HLA-A*02:06 (setting [1]), 1720 nM.
As to NITRLEVIGL, the Kd with HLA-A*02:02 (setting [1]) amounted to 907 nM; with HLA-A*02:03 (setting [1]) it was 95.1 nM; with HLA-A*02:06 (setting [1]) it was 197 nM.
On to VLEKKVCAI, for which the Kd is 14400 nM in the assay with HLA-A*02:02 (setting [1]), 2310 nM in the assay with HLA-A*02:03 (setting [1]) and 3390 nM with HLA-A*02:06 (setting [1]).
As for VLLPFYETL, the Kd in the assay with HLA-A*02:02 (setting [1]) amounted to 4060 nM; with HLA-A*02:03 (setting [1]) it was 267 nM; in the assay with HLA-A*02:06 (setting [1]), 218 nM.
Turning to IVDSMIIGHI, the results for the Kd in the assay with HLA-A*02:02 (setting [1]), with HLA-A*02:03 (setting [1]) and with HLA-A*02:06 (setting [1]) were 507 nM, 208 nM and 561 nM, respectively.
In the case of IVVALSSLV, the Kd with HLA-A*02:02 (setting [1]) came to 26.7 nM; with HLA-A*02:03 (setting [1]), 3.85 nM; in the assay with HLA-A*02:06 (setting [1]), 8.23 nM.
On the same counts, the results for SVKYYGRST are 6790 nM, 1160 nM and 19400 nM.
In the same order, the values of QLLKILDNL are 227 nM, 319 nM and 135 nM.
In the case of TLNTLITLIL, the Kd in the assay with HLA-A*02:02 (setting [1]) came out at 150 nM; with HLA-A*02:03 (setting [1]), 7.09 nM; in the assay with HLA-A*02:06 (setting [1]), 826 nM.
Turning to DVIKSISSI, the Kd with HLA-A*02:02 (setting [1]) is at least 63800 nM; with HLA-A*02:03 (setting [1]) it was 7520 nM; in the assay with HLA-A*02:06 (setting [1]), 15000 nM.
With FVDEFYAYL, the Kd with HLA-A*02:02 (setting [3]) was 0.0886 nM; with HLA-A*02:03 (setting [3]) it was 2.62 nM; in the assay with HLA-A*02:06 (setting [3]), 0.36 nM.
Regarding STKADAVVA, the values for the dissociation constant (Kd) with HLA-A*02:02 (setting [1]), with HLA-A*02:03 (setting [1]) and in the assay with HLA-A*02:06 (setting [1]) were 8190 nM, 4950 nM and 16200 nM, respectively.
Take YLSGTDDEVI: the Kd with HLA-A*02:02 (setting [1]) came to 6.26 nM; with HLA-A*02:03 (setting [1]), 211 nM; with HLA-A*02:06 (setting [1]), 947 nM.
As for DMLLNVQTLI, the Kd with HLA-A*02:02 (setting [1]) came out at 41.6 nM; with HLA-A*02:03 (setting [1]) it was 161 nM; in the assay with HLA-A*02:06 (setting [1]) it was 291 nM.
Regarding ILEYLYIMRV, the values for the dissociation constant (Kd) with HLA-A*02:02 (setting [1]), in the assay with HLA-A*02:03 (setting [1]) and in the assay with HLA-A*02:06 (setting [1]) were 73.5 nM, 83.2 nM and 134 nM, respectively.
On the same counts, the results for FITVLTSVDI are 1420 nM, 237 nM and 1270 nM.
Take IIMAINVFT: the Kd in the assay with HLA-A*02:02 (setting [1]) turned out to be 39.3 nM; with HLA-A*02:03 (setting [1]), 180 nM; with HLA-A*02:06 (setting [1]), 10.3 nM.
On to HQIFGTAYGV, for which the Kd with HLA-A*02:06 (source organism: Dengue virus 1 Nauru/West Pac/1974) came out at 20.6 nM.
For the sequence ILSEKRKDTI, the Kd is at least 44000 nM in the assay with HLA-A*02:02 (setting [1]), 541 nM with HLA-A*02:03 (setting [1]) and at least 69800 nM with HLA-A*02:06 (setting [1]).
With FTDCRTIDA, the Kd is 10900 nM with HLA-A*02:02 (setting [1]), 2680 nM with HLA-A*02:03 (setting [1]) and 2710 nM with HLA-A*02:06 (setting [1]).
Turning to NVDIIDLLL, the Kd with HLA-A*02:02 (setting [1]) amounted to 461 nM; with HLA-A*02:03 (setting [1]) it was 4090 nM; with HLA-A*02:06 (setting [1]), 22.3 nM.
For LNVSYLCHL, the results for the Kd with HLA-A*02:02 (setting [4]), in the assay with HLA-A*02:03 (setting [4]) and with HLA-A*02:06 (setting [4]) were 296 nM, 7100 nM and 13600 nM, respectively.
With RLEVIGLTT, the results for the Kd in the assay with HLA-A*02:02 (setting [1]), with HLA-A*02:03 (setting [1]) and with HLA-A*02:06 (setting [1]) were at least 20000 nM, 13900 nM and at least 49800 nM, respectively.
On to FLLPSLATV, for which the Kd with HLA-A*02:02 (setting [3]) stood at 0.134 nM; with HLA-A*02:03 (setting [3]), 0.204 nM; with HLA-A*02:06 (setting [3]) it was 0.411 nM.
Take ETLPELNLSL: the Kd with HLA-A*02:02 (setting [1]) was 52.3 nM; in the assay with HLA-A*02:03 (setting [1]) it was 130 nM; with HLA-A*02:06 (setting [1]), 134 nM.
In the same order, the values of EVERLMELPV are 2460 nM, 1430 nM and 3630 nM.
In the same order, the values of VQLSNNKYVL are 288 nM, 9490 nM and 170 nM.
On to AIFNNRNLA, for which the Kd with HLA-A*02:02 (setting [1]) is 272 nM; in the assay with HLA-A*02:03 (setting [1]) it was 98.1 nM; with HLA-A*02:06 (setting [1]), 7.07 nM.
In the case of GVTSSGAIYK, the Kd in the assay with HLA-A*03:01 was 181 nM; with HLA-A*11:01, 45.9 nM; with HLA-A*31:01, 1350 nM; with HLA-A*33:01, at least 10000 nM; with HLA-A*68:01 it was 81.3 nM.
